How the values were obtained:
[1] = substrate: C[C@H](CCC(=O)O)[C@H]1CC[C@H]2[C@@H]3C(=O)C[C@@H]4CC(=O)CC[C@]4(C)[C@H]3CC(=O)[C@]12C; test: purified protein, by the assay type; settings: other: Table 14, substrate DHCA, tag N, apparent values, pH 8.0
[2] = substrate: NC(=O)C1=CN([C@@H]2O[C@H](COP(=O)(O)OP(=O)(O)OC[C@H]3O[C@@H](n4cnc5c(N)ncnc54)[C@H](O)[C@@H]3O)[C@@H](O)[C@H]2O)C=CC1; test: purified protein, by the assay type; settings: other: Table 15, substrate NADH; tag N; apparent values; pH 8.0
[3] = substrate: C[C@H](CCC(=O)O)[C@H]1CC[C@H]2[C@@H]3C(=O)C[C@@H]4CC(=O)CC[C@]4(C)[C@H]3CC(=O)[C@]12C; test: cells, lysate or membranes named; settings: other: His tag length 3; DHCA 10 μM-10 mM; NADH 0.2 mM; purified; pH 8.0; 25.0 °C
Excerpt: The His-tag allows for very simple purification of the HSDH protein since this sequence is bound with high specificity by specific chromatographic material (NTA (Ni-nitrilotriacetate)-modified support material, loaded with divalent nickel ions, for example “His Pur Ni-NTA” (Nimagen B. V., Nijmegen, The Netherlands)). To this end, the cell-free crude extract is applied to a dropping column comprising this material, which dropping column has previously been equilibrated with the disruption buffer (3 to 5 column volumes). Weakly binding protein was removed by washing with 3 to 5 column volumes of wash buffer (20 mM imidazole, 50 mM sodium phosphate, 300 mM NaCl, pH 8). […] The process was carried out at room temperature. The imidazole which was present was to be removed by buffer exchange.
The activity of the 3α-HSDH and of the mutants was determined using a photometric assay, where the decrease in absorbance was measured at 340 nm over a period of 30 seconds.
Following expression (25° C., 0.5 mM, IPTG, 20 hours), the protein was purified, and the expression and the purification were checked by means of an SDS gel. […] The NADH concentration was 0.2 mM. Purified protein was employed in the measurements.

3α-HSDH; substrate DHCA = assay type: biochemical, Comamonas testosteroni; settings: for DHCA substrate concentration at maximum specific activity / substrate excess inhibition: purified enzyme variant

Row | Molecule | Km [1] [µM] | Km [2] [µM] | Vmax [2] [µmol/min/mg] | kcat [2] [s⁻¹] | kcat/Km [2] [M⁻¹ s⁻¹] | DHCA substrate concentration at maximum specific activity (3α-HSDH; substrate DHCA) [mM] | substrate excess inhibition (3α-HSDH; substrate DHCA; substrate DHCA) | other results
1 | Comamonas testosteroni 3α-HSDH mutant [T188A], N-terminal hexahistidine tag (Comamonas testosteroni; T188A) (protein) MSIIVISGCATGIGAATRKVLEAAGHQIVGIDIRDAEVIADLSTAEGRKQAIADVLAKCSKGMDGLVLCAGLGPQTKVLGNVVSVNYFGATELMDAFLPALKKGHQPAAVVISSVASAHLAFDKNPLALALEAGEEAKARAIVEHAGEQGGNLAYAGSKNALTVAVRKRAAAWGEAGVRLNTIAPGAAETPLLQAGLQDPRYGESIAKFVPPMGRRAEPSEMASVIAFLMSPAASYVHGAQIVIDGGIDAVMRPTQF | 94.5 ± 11 | 111.5 ± 18.2 | 237 | 130 | 1.17e+06 |  |  | 
2 | Comamonas testosteroni 3α-HSDH mutant [P185A], N-terminal hexahistidine tag (Comamonas testosteroni; P185A) (protein) MSIIVISGCATGIGAATRKVLEAAGHQIVGIDIRDAEVIADLSTAEGRKQAIADVLAKCSKGMDGLVLCAGLGPQTKVLGNVVSVNYFGATELMDAFLPALKKGHQPAAVVISSVASAHLAFDKNPLALALEAGEEAKARAIVEHAGEQGGNLAYAGSKNALTVAVRKRAAAWGEAGVRLNTIAAGATETPLLQAGLQDPRYGESIAKFVPPMGRRAEPSEMASVIAFLMSPAASYVHGAQIVIDGGIDAVMRPTQF | 71.0 ± 11 |  |  |  |  |  |  | 
3 | Comamonas testosteroni 3α-HSDH mutant [L68A], N-terminal hexahistidine tag (Comamonas testosteroni; L68A) (protein) MSIIVISGCATGIGAATRKVLEAAGHQIVGIDIRDAEVIADLSTAEGRKQAIADVLAKCSKGMDGLVACAGLGPQTKVLGNVVSVNYFGATELMDAFLPALKKGHQPAAVVISSVASAHLAFDKNPLALALEAGEEAKARAIVEHAGEQGGNLAYAGSKNALTVAVRKRAAAWGEAGVRLNTIAPGATETPLLQAGLQDPRYGESIAKFVPPMGRRAEPSEMASVIAFLMSPAASYVHGAQIVIDGGIDAVMRPTQF |  | 17.1 ± 3.7 | 138 | 110 | 6.46e+06 |  |  | Km ([1]; NADH 0.2 mM): 75.4 ± 22.6 µM
4 | Comamonas testosteroni 3α-HSDH dual mutant [L68A/T188A], N-terminal hexahistidine tag (Comamonas testosteroni; L68A/T188A) (protein) MSIIVISGCATGIGAATRKVLEAAGHQIVGIDIRDAEVIADLSTAEGRKQAIADVLAKCSKGMDGLVACAGLGPQTKVLGNVVSVNYFGATELMDAFLPALKKGHQPAAVVISSVASAHLAFDKNPLALALEAGEEAKARAIVEHAGEQGGNLAYAGSKNALTVAVRKRAAAWGEAGVRLNTIAPGAAETPLLQAGLQDPRYGESIAKFVPPMGRRAEPSEMASVIAFLMSPAASYVHGAQIVIDGGIDAVMRPTQF | 164.4 ± 20.4 | 67.5 ± 4.7 | 229 | 111 | 1.65e+06 |  |  | 
5 | Comamonas testosteroni 3α-HSDH dual mutant [L68A/T188S], N-terminal hexahistidine tag (Comamonas testosteroni; L68A/T188S) (protein) MSIIVISGCATGIGAATRKVLEAAGHQIVGIDIRDAEVIADLSTAEGRKQAIADVLAKCSKGMDGLVACAGLGPQTKVLGNVVSVNYFGATELMDAFLPALKKGHQPAAVVISSVASAHLAFDKNPLALALEAGEEAKARAIVEHAGEQGGNLAYAGSKNALTVAVRKRAAAWGEAGVRLNTIAPGASETPLLQAGLQDPRYGESIAKFVPPMGRRAEPSEMASVIAFLMSPAASYVHGAQIVIDGGIDAVMRPTQF | 169.6 ± 22.6 | 47.4 ± 2.6 | 188 | 91.8 | 1.94e+06 |  |  | 
6 | Comamonas testosteroni 3α-HSDH dual mutant [P185A/T188A], N-terminal hexahistidine tag (Comamonas testosteroni; P185A/T188A) (protein) MSIIVISGCATGIGAATRKVLEAAGHQIVGIDIRDAEVIADLSTAEGRKQAIADVLAKCSKGMDGLVLCAGLGPQTKVLGNVVSVNYFGATELMDAFLPALKKGHQPAAVVISSVASAHLAFDKNPLALALEAGEEAKARAIVEHAGEQGGNLAYAGSKNALTVAVRKRAAAWGEAGVRLNTIAAGAAETPLLQAGLQDPRYGESIAKFVPPMGRRAEPSEMASVIAFLMSPAASYVHGAQIVIDGGIDAVMRPTQF | 66.9 ± 15 | 333.9 ± 137.5 | 85.9 | 17.6 | 52600 |  |  | 
7 | Comamonas testosteroni 3α-HSDH mutant [T188S], N-terminal hexahistidine tag (Comamonas testosteroni; T188S) (protein) MSIIVISGCATGIGAATRKVLEAAGHQIVGIDIRDAEVIADLSTAEGRKQAIADVLAKCSKGMDGLVLCAGLGPQTKVLGNVVSVNYFGATELMDAFLPALKKGHQPAAVVISSVASAHLAFDKNPLALALEAGEEAKARAIVEHAGEQGGNLAYAGSKNALTVAVRKRAAAWGEAGVRLNTIAPGASETPLLQAGLQDPRYGESIAKFVPPMGRRAEPSEMASVIAFLMSPAASYVHGAQIVIDGGIDAVMRPTQF | 312.6 ± 112 | 87.6 ± 29.7 | 147 | 96.1 | 1.1e+06 |  |  | 
8 | Comamonas testosteroni 3α-HSDH, wild type, C-terminal 3×His tag (Comamonas testosteroni) (protein) MSIIVISGCATGIGAATRKVLEAAGHQIVGIDIRDAEVIADLSTAEGRKQAIADVLAKCSKGMDGLVLCAGLGPQTKVLGNVVSVNYFGATELMDAFLPALKKGHQPAAVVISSVASAHLAFDKNPLALALEAGEEAKARAIVEHAGEQGGNLAYAGSKNALTVAVRKRAAAWGEAGVRLNTIAPGATETPLLQAGLQDPRYGESIAKFVPPMGRRAEPSEMASVIAFLMSPAASYVHGAQIVIDGGIDAVMRPTQFLEHHH |  |  |  |  |  |  |  | Km [3]: 997.9 ± 483 µM
9 | T188A N: 3α-HSDH mutant T188A with N-terminal hexahistidine tag (protein, UniProt P80702 2-257, looked up, variant T188A, N-terminal His6 tag, 3α-HSDH mutant T188A with N-terminal hexahistidine tag) 3-alpha-hydroxysteroid …: SIIVISGCATGIGAATRKVLEAAGHQIVGIDIRDAEVIADLSTAEGRKQAIADVLAKCSKGMDGLVLCAGLGPQTKVLGNVVSVNYFGATELMDAFLPALKKGHQPAAVVISSVASAHLAFDKNPLALALEAGEEAKARAIVEHAGEQGGNLAYAGSKNALTVAVRKRAAAWGEAGVRLNTIAPGAAETPLLQAGLQDPRYGESIAKFVPPMGRRAEPSEMASVIAFLMSPAASYVHGAQIVIDGGIDAVMRPTQF |  |  |  |  |  | 0.5 | pronounced substrate excess inhibition | 
10 | P185A/T188A N: 3α-HSDH dual mutant P185A/T188A with N-terminal hexahistidine tag (protein, UniProt P80702 2-257, looked up, variant P185A T188A, N-terminal His6 tag, 3α-HSDH dual mutant P185A/T188A with N-terminal hexahistidine tag) 3-alpha-hydroxysteroid …: SIIVISGCATGIGAATRKVLEAAGHQIVGIDIRDAEVIADLSTAEGRKQAIADVLAKCSKGMDGLVLCAGLGPQTKVLGNVVSVNYFGATELMDAFLPALKKGHQPAAVVISSVASAHLAFDKNPLALALEAGEEAKARAIVEHAGEQGGNLAYAGSKNALTVAVRKRAAAWGEAGVRLNTIAAGAAETPLLQAGLQDPRYGESIAKFVPPMGRRAEPSEMASVIAFLMSPAASYVHGAQIVIDGGIDAVMRPTQF |  |  |  |  |  | 0.5 | substrate excess inhibition was observed | activities compared with the corresponding single mutants (3α-HSDH; substrate DHCA; substrate DHCA): markedly lower
11 | L68A N: 3α-HSDH mutant L68A with N-terminal hexahistidine tag (protein, UniProt P80702 2-257, looked up, variant L68A, N-terminal His6 tag, 3α-HSDH mutant L68A with N-terminal hexahistidine tag) 3-alpha-hydroxysteroid …: SIIVISGCATGIGAATRKVLEAAGHQIVGIDIRDAEVIADLSTAEGRKQAIADVLAKCSKGMDGLVACAGLGPQTKVLGNVVSVNYFGATELMDAFLPALKKGHQPAAVVISSVASAHLAFDKNPLALALEAGEEAKARAIVEHAGEQGGNLAYAGSKNALTVAVRKRAAAWGEAGVRLNTIAPGATETPLLQAGLQDPRYGESIAKFVPPMGRRAEPSEMASVIAFLMSPAASYVHGAQIVIDGGIDAVMRPTQF |  |  |  |  |  | 0.1 | pronounced substrate excess inhibition | 
12 | L68A/T188A N: 3α-HSDH dual mutant L68A/T188A with N-terminal hexahistidine tag (protein, UniProt P80702 2-257, looked up, variant L68A T188A, N-terminal His6 tag, 3α-HSDH dual mutant L68A/T188A with N-terminal hexahistidine tag) 3-alpha-hydroxysteroid …: SIIVISGCATGIGAATRKVLEAAGHQIVGIDIRDAEVIADLSTAEGRKQAIADVLAKCSKGMDGLVACAGLGPQTKVLGNVVSVNYFGATELMDAFLPALKKGHQPAAVVISSVASAHLAFDKNPLALALEAGEEAKARAIVEHAGEQGGNLAYAGSKNALTVAVRKRAAAWGEAGVRLNTIAPGAAETPLLQAGLQDPRYGESIAKFVPPMGRRAEPSEMASVIAFLMSPAASYVHGAQIVIDGGIDAVMRPTQF |  |  |  |  |  | 0.5 | less pronounced substrate excess inhibition | 
13 | L68A/T188S N: 3α-HSDH dual mutant L68A/T188S with N-terminal hexahistidine tag (protein, UniProt P80702 2-257, looked up, variant L68A T188S, N-terminal His6 tag, 3α-HSDH dual mutant L68A/T188S with N-terminal hexahistidine tag) 3-alpha-hydroxysteroid …: SIIVISGCATGIGAATRKVLEAAGHQIVGIDIRDAEVIADLSTAEGRKQAIADVLAKCSKGMDGLVACAGLGPQTKVLGNVVSVNYFGATELMDAFLPALKKGHQPAAVVISSVASAHLAFDKNPLALALEAGEEAKARAIVEHAGEQGGNLAYAGSKNALTVAVRKRAAAWGEAGVRLNTIAPGASETPLLQAGLQDPRYGESIAKFVPPMGRRAEPSEMASVIAFLMSPAASYVHGAQIVIDGGIDAVMRPTQF |  |  |  |  |  | 0.5 | pronounced substrate excess inhibition | 
14 | T188S N: 3α-HSDH mutant T188S with N-terminal hexahistidine tag (protein, UniProt P80702 2-257, looked up, variant T188S, N-terminal His6 tag, 3α-HSDH mutant T188S with N-terminal hexahistidine tag) 3-alpha-hydroxysteroid …: SIIVISGCATGIGAATRKVLEAAGHQIVGIDIRDAEVIADLSTAEGRKQAIADVLAKCSKGMDGLVLCAGLGPQTKVLGNVVSVNYFGATELMDAFLPALKKGHQPAAVVISSVASAHLAFDKNPLALALEAGEEAKARAIVEHAGEQGGNLAYAGSKNALTVAVRKRAAAWGEAGVRLNTIAPGASETPLLQAGLQDPRYGESIAKFVPPMGRRAEPSEMASVIAFLMSPAASYVHGAQIVIDGGIDAVMRPTQF |  |  |  |  |  | 0.5 | substrate excess inhibition is observed | 
